# Experimental data published in US11833164B2, “Methods of treating Fabry disease in patients having a mutation in the GLA gene” (Amicus Therapeutics, Inc., priority 2019, dated 2023).
# B1: L189V (protein)
# chain: MQLRNPELHLGCALALRFLALVSWDIPGARALDNGLARTPTMGWLHWERFMCNLDCQEEPDSCISEKLFMEMAELMVSEGWKDAGYEYLCIDDCWMAPQRDSEGRLQADPQRFPHGIRQLANYVHSKGLKLGIYADVGNKTCAGFPGSFGYYDIDAQTFADWGVDLLKFDGCYCDSLENLADGYKHMSVALNRTGRSIVYSCEWPLYMWPFQKPNYTEIRQYCNHWRNFADIDDSWKSIKSILDWTSFNQERIVDVAGPGGWNDPDMLVIGNFGLSWNQQVTQMALWAIMAAPLFMSNDLRHISPQAKALLQDKDVIAINQDPLGKQGYQLRQGDNFEVWERPLSGLAWAVAMINRQEIGGPRSYTIAVASLGKGVACNPACFITQLLPVKRKLGFYEWTSRLRSHINPTGTVLLQLENTMQMSLKDLL
# B2: L191M (protein)
# chain: MQLRNPELHLGCALALRFLALVSWDIPGARALDNGLARTPTMGWLHWERFMCNLDCQEEPDSCISEKLFMEMAELMVSEGWKDAGYEYLCIDDCWMAPQRDSEGRLQADPQRFPHGIRQLANYVHSKGLKLGIYADVGNKTCAGFPGSFGYYDIDAQTFADWGVDLLKFDGCYCDSLENLADGYKHMSLAMNRTGRSIVYSCEWPLYMWPFQKPNYTEIRQYCNHWRNFADIDDSWKSIKSILDWTSFNQERIVDVAGPGGWNDPDMLVIGNFGLSWNQQVTQMALWAIMAAPLFMSNDLRHISPQAKALLQDKDVIAINQDPLGKQGYQLRQGDNFEVWERPLSGLAWAVAMINRQEIGGPRSYTIAVASLGKGVACNPACFITQLLPVKRKLGFYEWTSRLRSHINPTGTVLLQLENTMQMSLKDLL
# B3: A190S (protein)
# chain: MQLRNPELHLGCALALRFLALVSWDIPGARALDNGLARTPTMGWLHWERFMCNLDCQEEPDSCISEKLFMEMAELMVSEGWKDAGYEYLCIDDCWMAPQRDSEGRLQADPQRFPHGIRQLANYVHSKGLKLGIYADVGNKTCAGFPGSFGYYDIDAQTFADWGVDLLKFDGCYCDSLENLADGYKHMSLSLNRTGRSIVYSCEWPLYMWPFQKPNYTEIRQYCNHWRNFADIDDSWKSIKSILDWTSFNQERIVDVAGPGGWNDPDMLVIGNFGLSWNQQVTQMALWAIMAAPLFMSNDLRHISPQAKALLQDKDVIAINQDPLGKQGYQLRQGDNFEVWERPLSGLAWAVAMINRQEIGGPRSYTIAVASLGKGVACNPACFITQLLPVKRKLGFYEWTSRLRSHINPTGTVLLQLENTMQMSLKDLL
# B4: A190T (protein)
# chain: MQLRNPELHLGCALALRFLALVSWDIPGARALDNGLARTPTMGWLHWERFMCNLDCQEEPDSCISEKLFMEMAELMVSEGWKDAGYEYLCIDDCWMAPQRDSEGRLQADPQRFPHGIRQLANYVHSKGLKLGIYADVGNKTCAGFPGSFGYYDIDAQTFADWGVDLLKFDGCYCDSLENLADGYKHMSLTLNRTGRSIVYSCEWPLYMWPFQKPNYTEIRQYCNHWRNFADIDDSWKSIKSILDWTSFNQERIVDVAGPGGWNDPDMLVIGNFGLSWNQQVTQMALWAIMAAPLFMSNDLRHISPQAKALLQDKDVIAINQDPLGKQGYQLRQGDNFEVWERPLSGLAWAVAMINRQEIGGPRSYTIAVASLGKGVACNPACFITQLLPVKRKLGFYEWTSRLRSHINPTGTVLLQLENTMQMSLKDLL
# B5: A190V (protein)
# chain: MQLRNPELHLGCALALRFLALVSWDIPGARALDNGLARTPTMGWLHWERFMCNLDCQEEPDSCISEKLFMEMAELMVSEGWKDAGYEYLCIDDCWMAPQRDSEGRLQADPQRFPHGIRQLANYVHSKGLKLGIYADVGNKTCAGFPGSFGYYDIDAQTFADWGVDLLKFDGCYCDSLENLADGYKHMSLVLNRTGRSIVYSCEWPLYMWPFQKPNYTEIRQYCNHWRNFADIDDSWKSIKSILDWTSFNQERIVDVAGPGGWNDPDMLVIGNFGLSWNQQVTQMALWAIMAAPLFMSNDLRHISPQAKALLQDKDVIAINQDPLGKQGYQLRQGDNFEVWERPLSGLAWAVAMINRQEIGGPRSYTIAVASLGKGVACNPACFITQLLPVKRKLGFYEWTSRLRSHINPTGTVLLQLENTMQMSLKDLL
# B6: A190D (protein)
# chain: MQLRNPELHLGCALALRFLALVSWDIPGARALDNGLARTPTMGWLHWERFMCNLDCQEEPDSCISEKLFMEMAELMVSEGWKDAGYEYLCIDDCWMAPQRDSEGRLQADPQRFPHGIRQLANYVHSKGLKLGIYADVGNKTCAGFPGSFGYYDIDAQTFADWGVDLLKFDGCYCDSLENLADGYKHMSLDLNRTGRSIVYSCEWPLYMWPFQKPNYTEIRQYCNHWRNFADIDDSWKSIKSILDWTSFNQERIVDVAGPGGWNDPDMLVIGNFGLSWNQQVTQMALWAIMAAPLFMSNDLRHISPQAKALLQDKDVIAINQDPLGKQGYQLRQGDNFEVWERPLSGLAWAVAMINRQEIGGPRSYTIAVASLGKGVACNPACFITQLLPVKRKLGFYEWTSRLRSHINPTGTVLLQLENTMQMSLKDLL
# B7: A190G (protein)
# chain: MQLRNPELHLGCALALRFLALVSWDIPGARALDNGLARTPTMGWLHWERFMCNLDCQEEPDSCISEKLFMEMAELMVSEGWKDAGYEYLCIDDCWMAPQRDSEGRLQADPQRFPHGIRQLANYVHSKGLKLGIYADVGNKTCAGFPGSFGYYDIDAQTFADWGVDLLKFDGCYCDSLENLADGYKHMSLGLNRTGRSIVYSCEWPLYMWPFQKPNYTEIRQYCNHWRNFADIDDSWKSIKSILDWTSFNQERIVDVAGPGGWNDPDMLVIGNFGLSWNQQVTQMALWAIMAAPLFMSNDLRHISPQAKALLQDKDVIAINQDPLGKQGYQLRQGDNFEVWERPLSGLAWAVAMINRQEIGGPRSYTIAVASLGKGVACNPACFITQLLPVKRKLGFYEWTSRLRSHINPTGTVLLQLENTMQMSLKDLL
# Tested on: mutant form of α-Gal A expressed in HEK-293 cells
# Test: HEK assay (GLP HEK / Migalastat Amenability Assay): α-Gal A activity in lysates of transiently transfected HEK-293 cells incubated with or without 10 μM migalastat
# Format: cell-based, human
# Conditions: for Absolute increase (% WT): 10 μM migalastat versus baseline; for Relative increase: 10 μM migalastat α-Gal A activity relative to baseline; for 10 μM migalastat α-Gal A activity (% WT): 5 days; for 10 μM migalastat α-Gal A activity (% WT) / Baseline α-Gal A activity (% WT): percentage of baseline wild-type α-Gal A activity; for 10 μM migalastat α-Gal A activity (% WT) / Baseline α-Gal A activity (% WT) / Baseline α-Gal A activity / 10 μM migalastat α-Gal A activity: mean ± SEM; for Baseline α-Gal A activity (% WT): absence of migalastat; for Baseline α-Gal A activity / 10 μM migalastat α-Gal A activity: lysates of HEK-293 cells transfected with the mutant form; for Baseline α-Gal A activity: incubated 5 days in the absence of migalastat; for 10 μM migalastat α-Gal A activity: incubated 5 days with 10 μM migalastat
# Procedure, shortened: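 Activity reported as 4-MU released (nmol/mg/hr), mean±SEM, from lysates of transiently transfected HEK-293 cells expressing mutant α-Gal A, cultured with or without 10 μM migalastat.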
Molecule,Absolute increase (% WT),Relative increase,10 μM migalastat α-Gal A activity (% WT),Baseline α-Gal A activity (% WT),Baseline α-Gal A activity,10 μM migalastat α-Gal A activity
B1,20.2 % WT,1.3,100.1 ± 3.9 % WT,79.9 ± 5.1 % WT,25544 ± 1758 nmol/mg/h,32031 ± 1633 nmol/mg/h
B2,41.7 % WT,1.8,100.2 ± 9.8 % WT,58.4 ± 6.6 % WT,19968 ± 2010 nmol/mg/h,34977 ± 3072 nmol/mg/h
B3,26.1 % WT,1.3,110.6 ± 5.5 % WT,84.5 ± 3.2 % WT,27316 ± 1369 nmol/mg/h,35787 ± 2235 nmol/mg/h
B4,30.7 % WT,2.1,57 ± 1.9 % WT,26.3 ± 2 % WT,8600 ± 733 nmol/mg/h,18373 ± 795 nmol/mg/h
B5,41.2 % WT,2.2,77.9 ± 9.5 % WT,36.8 ± 5.1 % WT,12542 ± 1642 nmol/mg/h,27078 ± 2910 nmol/mg/h
B6,26.9 % WT,2.2,49 ± 3.4 % WT,22.1 ± 1 % WT,7141 ± 423 nmol/mg/h,15887 ± 1308 nmol/mg/h
B7,27.4 % WT,1.4,97.9 ± 9.8 % WT,70.5 ± 7.3 % WT,24299 ± 2173 nmol/mg/h,34126 ± 2992 nmol/mg/h
